For assay [1], the target named is IFN-γ (human) (UniProt P01579). Nature of the assay: sandwich microarray in flow cell, chemiluminescence, cytokine 1 ng/ml; Chip 1.
Assay [2] deals with IFN-γ (human) (UniProt P01579). Nature of the assay: sandwich microarray in flow cell, chemiluminescence, cytokine 1 ng/ml; Chip 2.
In assay [3] the target is IFN-γ (human) (UniProt P01579). Nature of the assay: sandwich microarray in flow cell, chemiluminescence, cytokine 1 ng/ml; Chip 3.
The target of assay [4] is IFN-γ (human) (UniProt P01579). Nature of the assay: sandwich microarray in flow cell, chemiluminescence, cytokine 1 ng/ml; Chip 4.
Assay [5] has as its target IFN-γ (human) (UniProt P01579). Nature of the assay: sandwich microarray in flow cell, chemiluminescence, cytokine 1 ng/ml; Chip 5.
In assay [6] the target is IFN-γ (human) (UniProt P01579). Nature of the assay: sandwich microarray in flow cell, chemiluminescence, cytokine 1 ng/ml; AVG of Chips 1-5.
Assay [7] concerns the target IFN-γ (human) (UniProt P01579). Nature of the assay: sandwich microarray in flow cell, chemiluminescence, cytokine 1 ng/ml, divided by chip-specific PNA calibration factor; Chip 1.
In assay [8] the target is IFN-γ (human) (UniProt P01579). Nature of the assay: sandwich microarray in flow cell, chemiluminescence, cytokine 1 ng/ml, divided by chip-specific PNA calibration factor; Chip 2.
For assay [9], the target named is IFN-γ (human) (UniProt P01579). Nature of the assay: sandwich microarray in flow cell, chemiluminescence, cytokine 1 ng/ml, divided by chip-specific PNA calibration factor; Chip 3.
In assay [10] the target is IFN-γ (human) (UniProt P01579). Nature of the assay: sandwich microarray in flow cell, chemiluminescence, cytokine 1 ng/ml, divided by chip-specific PNA calibration factor; Chip 4.
The target in assay [11] is IFN-γ (human) (UniProt P01579). Nature of the assay: sandwich microarray in flow cell, chemiluminescence, cytokine 1 ng/ml, divided by chip-specific PNA calibration factor; Chip 5.
Assay [12] addresses IFN-γ (human) (UniProt P01579). Nature of the assay: sandwich microarray in flow cell, chemiluminescence, cytokine 1 ng/ml, divided by chip-specific PNA calibration factor; AVG of Chips 1-5.
The target in assay [13] is IL-1a (human) (UniProt P01583). Nature of the assay: sandwich microarray in flow cell, chemiluminescence, cytokine 1 ng/ml; Chip 1.
Assay [14] addresses IL-1a (human) (UniProt P01583). Nature of the assay: sandwich microarray in flow cell, chemiluminescence, cytokine 1 ng/ml; Chip 2.
Assay [15] has as its target IL-1a (human) (UniProt P01583). Nature of the assay: sandwich microarray in flow cell, chemiluminescence, cytokine 1 ng/ml; Chip 3.
The target of assay [16] is IL-1a (human) (UniProt P01583). Nature of the assay: sandwich microarray in flow cell, chemiluminescence, cytokine 1 ng/ml; Chip 4.
Assay [17] addresses IL-1a (human) (UniProt P01583). Nature of the assay: sandwich microarray in flow cell, chemiluminescence, cytokine 1 ng/ml; Chip 5.
For assay [18], the target named is IL-1a (human) (UniProt P01583). Nature of the assay: sandwich microarray in flow cell, chemiluminescence, cytokine 1 ng/ml; AVG of Chips 1-5.
Assay [19] has as its target IL-1a (human) (UniProt P01583). Nature of the assay: sandwich microarray in flow cell, chemiluminescence, cytokine 1 ng/ml, divided by chip-specific PNA calibration factor; Chip 1.
Assay [20] concerns the target IL-1a (human) (UniProt P01583). Nature of the assay: sandwich microarray in flow cell, chemiluminescence, cytokine 1 ng/ml, divided by chip-specific PNA calibration factor; Chip 2.
For assay [21], the target named is IL-1a (human) (UniProt P01583). Nature of the assay: sandwich microarray in flow cell, chemiluminescence, cytokine 1 ng/ml, divided by chip-specific PNA calibration factor; Chip 3.
The target in assay [22] is IL-1a (human) (UniProt P01583). Nature of the assay: sandwich microarray in flow cell, chemiluminescence, cytokine 1 ng/ml, divided by chip-specific PNA calibration factor; Chip 4.
The target of assay [23] is IL-1a (human) (UniProt P01583). Nature of the assay: sandwich microarray in flow cell, chemiluminescence, cytokine 1 ng/ml, divided by chip-specific PNA calibration factor; Chip 5.
Assay [24] addresses IL-1a (human) (UniProt P01583). Nature of the assay: sandwich microarray in flow cell, chemiluminescence, cytokine 1 ng/ml, divided by chip-specific PNA calibration factor; AVG of Chips 1-5.
Assay [25] has as its target IL-2 (human) (UniProt P60568). Nature of the assay: sandwich microarray in flow cell, chemiluminescence, cytokine 1 ng/ml; Chip 1.
The target of assay [26] is IL-2 (human) (UniProt P60568). Nature of the assay: sandwich microarray in flow cell, chemiluminescence, cytokine 1 ng/ml; Chip 2.
The target in assay [27] is IL-2 (human) (UniProt P60568). Nature of the assay: sandwich microarray in flow cell, chemiluminescence, cytokine 1 ng/ml; Chip 3.
Assay [28] addresses IL-2 (human) (UniProt P60568). Nature of the assay: sandwich microarray in flow cell, chemiluminescence, cytokine 1 ng/ml; Chip 4.
Assay [29] has as its target IL-2 (human) (UniProt P60568). Nature of the assay: sandwich microarray in flow cell, chemiluminescence, cytokine 1 ng/ml; Chip 5.
For assay [30], the target named is IL-2 (human) (UniProt P60568). Nature of the assay: sandwich microarray in flow cell, chemiluminescence, cytokine 1 ng/ml; AVG of Chips 1-5.
In assay [31] the target is IL-2 (human) (UniProt P60568). Nature of the assay: sandwich microarray in flow cell, chemiluminescence, cytokine 1 ng/ml, divided by chip-specific PNA calibration factor; Chip 1.
Assay [32] concerns the target IL-2 (human) (UniProt P60568). Nature of the assay: sandwich microarray in flow cell, chemiluminescence, cytokine 1 ng/ml, divided by chip-specific PNA calibration factor; Chip 2.
Assay [33] deals with IL-2 (human) (UniProt P60568). Nature of the assay: sandwich microarray in flow cell, chemiluminescence, cytokine 1 ng/ml, divided by chip-specific PNA calibration factor; Chip 3.
In assay [34] the target is IL-2 (human) (UniProt P60568). Nature of the assay: sandwich microarray in flow cell, chemiluminescence, cytokine 1 ng/ml, divided by chip-specific PNA calibration factor; Chip 4.
The target of assay [35] is IL-2 (human) (UniProt P60568). Nature of the assay: sandwich microarray in flow cell, chemiluminescence, cytokine 1 ng/ml, divided by chip-specific PNA calibration factor; Chip 5.
The target in assay [36] is IL-2 (human) (UniProt P60568). Nature of the assay: sandwich microarray in flow cell, chemiluminescence, cytokine 1 ng/ml, divided by chip-specific PNA calibration factor; AVG of Chips 1-5.
Assay [37] has as its target IL-12p70 (human) (UniProt P29459). Nature of the assay: sandwich microarray in flow cell, chemiluminescence, cytokine 1 ng/ml; Chip 1.
Assay [38] shares this target. Nature of the assay: sandwich microarray in flow cell, chemiluminescence, cytokine 1 ng/ml; Chip 2.
For assay [39] the target is unchanged. Nature of the assay: sandwich microarray in flow cell, chemiluminescence, cytokine 1 ng/ml; Chip 3.
For assay [40] the target is unchanged. Nature of the assay: sandwich microarray in flow cell, chemiluminescence, cytokine 1 ng/ml; Chip 4.
For assay [41] the target is unchanged. Nature of the assay: sandwich microarray in flow cell, chemiluminescence, cytokine 1 ng/ml; Chip 5.
Assay [42] has the same target. Nature of the assay: sandwich microarray in flow cell, chemiluminescence, cytokine 1 ng/ml; AVG of Chips 1-5.
The target is the same in assay [43]. Nature of the assay: sandwich microarray in flow cell, chemiluminescence, cytokine 1 ng/ml, divided by chip-specific PNA calibration factor; Chip 1.
Assay [44] has the same target. Nature of the assay: sandwich microarray in flow cell, chemiluminescence, cytokine 1 ng/ml, divided by chip-specific PNA calibration factor; Chip 2.
For assay [45] the target is unchanged. Nature of the assay: sandwich microarray in flow cell, chemiluminescence, cytokine 1 ng/ml, divided by chip-specific PNA calibration factor; Chip 3.
For assay [46] the target is unchanged. Nature of the assay: sandwich microarray in flow cell, chemiluminescence, cytokine 1 ng/ml, divided by chip-specific PNA calibration factor; Chip 4.
The target is the same in assay [47]. Nature of the assay: sandwich microarray in flow cell, chemiluminescence, cytokine 1 ng/ml, divided by chip-specific PNA calibration factor; Chip 5.
Assay [48] shares this target. Nature of the assay: sandwich microarray in flow cell, chemiluminescence, cytokine 1 ng/ml, divided by chip-specific PNA calibration factor; AVG of Chips 1-5.

This passage reports chemiluminescent spot intensity (Un-Calibrated Data) and chemiluminescent spot intensity (Calibrated Data) results from patent US20060210984A1.

Chain of UniProt P01583 (P01583 113-271 limits assumed): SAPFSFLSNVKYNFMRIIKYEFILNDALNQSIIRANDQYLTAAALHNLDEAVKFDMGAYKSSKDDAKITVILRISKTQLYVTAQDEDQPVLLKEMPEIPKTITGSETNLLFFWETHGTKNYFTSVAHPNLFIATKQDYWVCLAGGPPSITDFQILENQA
Chain of UniProt P01579 (P01579 24-166 limits assumed): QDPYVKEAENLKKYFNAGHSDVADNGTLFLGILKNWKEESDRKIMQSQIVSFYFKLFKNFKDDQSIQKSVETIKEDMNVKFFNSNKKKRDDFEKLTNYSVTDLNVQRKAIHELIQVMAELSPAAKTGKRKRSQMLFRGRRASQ
Chain of UniProt P29459 (P29459 23-219 limits assumed, chain 1 of 2): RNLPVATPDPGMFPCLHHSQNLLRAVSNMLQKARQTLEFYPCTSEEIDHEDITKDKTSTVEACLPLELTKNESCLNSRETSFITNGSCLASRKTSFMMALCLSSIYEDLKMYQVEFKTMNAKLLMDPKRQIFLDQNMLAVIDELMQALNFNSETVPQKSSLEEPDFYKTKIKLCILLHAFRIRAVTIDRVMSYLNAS
Chain of UniProt P29459 (P29460 23-328 limits assumed, chain 2 of 2, further chain): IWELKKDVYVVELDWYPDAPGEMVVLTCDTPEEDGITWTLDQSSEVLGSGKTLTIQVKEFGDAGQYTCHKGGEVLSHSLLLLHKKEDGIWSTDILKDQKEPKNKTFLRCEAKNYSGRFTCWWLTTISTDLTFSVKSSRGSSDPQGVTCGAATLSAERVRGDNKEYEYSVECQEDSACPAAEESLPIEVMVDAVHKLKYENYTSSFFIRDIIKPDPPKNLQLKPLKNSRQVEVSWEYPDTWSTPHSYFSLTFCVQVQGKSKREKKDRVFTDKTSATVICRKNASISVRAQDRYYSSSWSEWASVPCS
Chain of UniProt P60568 (P60568 21-153 limits assumed): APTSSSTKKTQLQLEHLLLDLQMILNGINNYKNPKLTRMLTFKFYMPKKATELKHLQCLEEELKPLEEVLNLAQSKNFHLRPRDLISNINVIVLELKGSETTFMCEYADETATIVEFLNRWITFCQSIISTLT

For “MAb IFN-g (monoclonal capture antibody of the anti-human IFN-γ OptEIA matched pair, BD Biosciences-Pharmingen)”, the chemiluminescent spot intensity (Un-Calibrated Data) came out at 0 in the assay with IFN-γ (human) [1]; 0 with IFN-γ (human) [2]; 10 with IFN-γ (human) [3]; 2 with IFN-γ (human) [4]; 0 with IFN-γ (human) [5]; 2.4 with IFN-γ (human) [6]. The chemiluminescent spot intensity (Calibrated Data) stood at 0 with IFN-γ (human) [7]; 0 in the assay with IFN-γ (human) [8]; 10 in the assay with IFN-γ (human) [9]; 4.39 with IFN-γ (human) [10]; 0 with IFN-γ (human) [11]; 2.88 with IFN-γ (human) [12].

Consider “MAb IL-1a (monoclonal capture antibody of the anti-human IL-1a OptEIA matched pair, BD Biosciences-Pharmingen)”, for which the chemiluminescent spot intensity (Un-Calibrated Data) in the assay with IL-1a (human) [13] amounted to 175; in the assay with IL-1a (human) [14] it was 95; with IL-1a (human) [15], 312; in the assay with IL-1a (human) [16], 137; with IL-1a (human) [17], 121; with IL-1a (human) [18] it was 168. Besides, the chemiluminescent spot intensity (Calibrated Data) in the assay with IL-1a (human) [19] was 293; with IL-1a (human) [20] it was 325; with IL-1a (human) [21], 312; in the assay with IL-1a (human) [22], 301; with IL-1a (human) [23], 373; in the assay with IL-1a (human) [24], 321.

“MAb IL-2 (monoclonal capture antibody of the anti-human IL-2 OptEIA matched pair, BD Biosciences-Pharmingen)”: the chemiluminescent spot intensity (Un-Calibrated Data) with IL-2 (human) [25] was 251; with IL-2 (human) [26], 127; in the assay with IL-2 (human) [27] it was 441; in the assay with IL-2 (human) [28], 196; with IL-2 (human) [29] it was 126; with IL-2 (human) [30] it was 228. In addition, the chemiluminescent spot intensity (Calibrated Data) was determined as 421 with IL-2 (human) [31]; 434 with IL-2 (human) [32]; 441 with IL-2 (human) [33]; 430 with IL-2 (human) [34]; 389 in the assay with IL-2 (human) [35]; 423 in the assay with IL-2 (human) [36].

In the case of “MAb IL-12 p70 (monoclonal capture antibody of the anti-human IL-12p70 OptEIA matched pair, BD Biosciences-Pharmingen)”, the chemiluminescent spot intensity (Un-Calibrated Data) is 554 in the assay with IL-12p70 (human) [37]; 255 with IL-12p70 (human) [38]; 956 with IL-12p70 (human) [39]; 397 with IL-12p70 (human) [40]; 288 with IL-12p70 (human) [41]; 490 with IL-12p70 (human) [42]. For the same substance, the chemiluminescent spot intensity (Calibrated Data) amounted to 929 in the assay with IL-12p70 (human) [43]; 872 with IL-12p70 (human) [44]; 956 in the assay with IL-12p70 (human) [45]; 872 with IL-12p70 (human) [46]; 888 with IL-12p70 (human) [47]; 903 with IL-12p70 (human) [48].
